Data as given in PMC4096160 (Nature structural & molecular biology, 2013).

Columns and labels:
hSTAU1^55-HA3 (human) = hSTAU1^55-HA3 (human) (UniProt O95793); experiment: co-IP
[1] = molecular target: hSTAU1^55(R)Δ(SSM-‘RBD’5)-FLAG (human); experiment: co-IP
AUC = molecular target: the molecule itself; experiment: AUC
SEC = molecular target: the molecule itself; experiment: SEC

Sequence of hSTAU1^55-HA3 (human) (O95793 82-577): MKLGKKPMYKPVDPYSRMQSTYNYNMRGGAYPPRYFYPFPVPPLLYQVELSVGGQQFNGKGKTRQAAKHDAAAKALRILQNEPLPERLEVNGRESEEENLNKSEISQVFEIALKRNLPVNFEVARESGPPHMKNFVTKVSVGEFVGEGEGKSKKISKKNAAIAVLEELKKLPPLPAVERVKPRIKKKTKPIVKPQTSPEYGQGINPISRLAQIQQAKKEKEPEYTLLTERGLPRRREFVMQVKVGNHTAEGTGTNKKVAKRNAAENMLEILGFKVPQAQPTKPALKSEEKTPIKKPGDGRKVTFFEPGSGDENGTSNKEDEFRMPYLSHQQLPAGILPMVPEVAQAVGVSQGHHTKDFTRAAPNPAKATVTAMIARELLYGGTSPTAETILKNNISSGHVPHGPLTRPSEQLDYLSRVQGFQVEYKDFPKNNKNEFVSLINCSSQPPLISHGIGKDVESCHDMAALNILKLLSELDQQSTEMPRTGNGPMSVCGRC
Sequence of hSTAU1^55-HA3 (O95793 82-577): as above

Row | Molecule | level of co-immunoprecipitation as percent of that with WT or Δ(C-Term) [1] [%] | stoichiometry N (SEC) | other results
1 | hSTAU1^55(R)Δ(SSM-‘RBD’5)-FLAG (domain or fragment) |  |  | level of co-immunoprecipitation as percent of that of WT or Δ(C-Term) (hSTAU1^55-HA3 (human)): 10%
2 | hSTAU1 SSM-‘RBD’5 (hSTAU1 amino acids 367–476) (domain or fragment) KATVTAMIARELLYGGTSPTAETILKNNISSGHVPHGPLTRPSEQLDYLSRVQGFQVEYKDFPKNNKNEFVSLINCSSQPPLISHGIGKDVESCHDMAALNILKLLSELD |  | 2 | Kd (AUC): 79 ± 9 µM
3 | hSTAU1-‘RBD’2-RBD3 (amino acids 43–173) (domain or fragment) PLLYQVELSVGGQQFNGKGKTRQAAKHDAAAKALRILQNEPLPERLEVNGRESEEENLNKSEISQVFEIALKRNLPVNFEVARESGPPHMKNFVTKVSVGEFVGEGEGKSKKISKKNAAIAVLEELKKLPP |  | 2 | 

The next lines start with results.

Row | level of co-immunoprecipitation as percent of that with WT or Δ(C-Term) [1] [%] | Molecule | stoichiometry N (SEC) | other results
4 | 10 | hSTAU1^55-HA3 (from UniProt O95793-2 1-496) (natural protein) |  | 
5 | 10 | cellular hUPF1 (natural protein) MSVEAYGPSSQTLTFLDTEEAELLGADTQGSEFEFTDFTLPSQTQTPPGGPGGPGGGGAGGPGGAGAGAAAGQLDAQVGPEGILQNGAVDDSVAKTSQLLAELNFEEDEEDTYYTKDLPIHACSYCGIHDPACVVYCNTSKKWFCNGRGNTSGSHIVNHLVRAKCKEVTLHKDGPLGETVLECYNCGCRNVFLLGFIPAKADSVVVLLCRQPCASQSSLKDINWDSSQWQPLIQDRCFLSWLVKIPSEQEQLRARQITAQQINKLEELWKENPSATLEDLEKPGVDEEPQHVLLRYEDAYQYQNIFGPLVKLEADYDKKLKESQTQDNITVRWDLGLNKKRIAYFTLPKTDSGNEDLVIIWLRDMRLMQGDEICLRYKGDLAPLWKGIGHVIKVPDNYGDEIAIELRSSVGAPVEVTHNFQVDFVWKSTSFDRMQSALKTFAVDETSVSGYIYHKLLGHEVEDVIIKCQLPKRFTAQGLPDLNHSQVYAVKTVLQRPLSLIQGPPGTGKTVTSATIVYHLARQGNGPVLVCAPSNIAVDQLTEKIHQTGLKVVRLCAKSREAIDSPVSFLALHNQIRNMDSMPELQKLQQLKDETGELSSADEKRYRALKRTAERELLMNADVICCTCVGAGDPRLAKMQFRSILIDESTQATEPECMVPVVLGAKQLILVGDHCQLGPVVMCKKAAKAGLSQSLFERLVVLGIRPIRLQVQYRMHPALSAFPSNIFYEGSLQNGVTAADRVKKGFDFQWPQPDKPMFFYVTQGQEEIASSGTSYLNRTEAANVEKITTKLLKAGAKPDQIGIITPYEGQRSYLVQYMQFSGSLHTKLYQEVEIASVDAFQGREKDFIILSCVRANEHQGIGFLNDPRRLNVALTRARYGVIIVGNPKALSKQPLWNHLLNYYKEQKVLVEGPLNNLRESLMQFSKPRKLVNTINPGARFMTTAMYDAREAIIPGSVYDRSSQGRPSSMYFQTHDQIGMISAGPSHVAAMNIPIPFNLVMPPMPPPGYFGQANGPAAGRGTPKGKTGRGGRQKNRFGLPGPSQTNLPNSQASQDVASQPFSQGALTQGYISMSQPSQMSQPGLSQPELSQDSYLGDEFKSQIDVALSQDSTYQGERAYQHGGVTGLSQY |  | 
